B1: Sra1 (natural protein)
chain: MAAQVTLEDALSNVDLLEELPLPDQQPCIEPPPSSLLYQPNFNTNFEDRNAFVTGIARYIEQATVHSSMNEMLEEGQEYAVMLYTWRSCSRAIPQVKCNEQPNRVEIYEKTVEVLEPEVTKLMNFMYFQRNAIERFCGEVRRLCHAERRKDFVSEAYLITLGKFINMFAVLDELKNMKCSVKNDHSAYKRAAQFLRKMADPQSIQESQNLSMFLANHNKITQSLQQQLEVISGYEELLADIVNLCVDYYENRMYLTPSEKHMLLKVMGFGLYLMDGSVSNIYKLDAKKRINLSKIDKYFKQLQVVPLFGDMQIELARYIKTSAHYEENKSRWTCTSSGSSPQYNICEQMIQIREDHMRFISELARYSNSEVVTGSGRQEAQKTDAEYRKLFDLALQGLQLLSQWSAHVMEVYSWKLVHPTDKYSNKDCPDSAEEYERATRYNYTSEEKFALVEVIAMIKGLQVLMGRMESVFNHAIRHTVYAALQDFSQVTLREPLRQAIKKKKNVIQSVLQAIRKTVCDWETGHEPFNDPALRGEKDPKSGFDIKVPRRAVGPSSTQLYMVRTMLESLIADKSGSKKTLRSSLEGPTILDIEKFHRESFFYTHLINFSETLQQCCDLSQLWFREFFLELTMGRRIQFPIEMSMPWILTDHILETKEASMMEYVLYSLDLYNDSAHYALTRFNKQFLYDEIEAEVNLCFDQFVYKLADQIFAYYKVMAGSLLLDKRLRSECKNQGATIHLPPSNRYETLLKQRHVQLLGRSIDLNRLITQRVSAAMYKSLELAIGRFESEDLTSIVELDGLLEINRMTHKLLSRYLTLDGFDAMFREANHNVSAPYGRITLHVFWELNYDFLPNYCYNGSTNRFVRTVLPFSQEFQRDKQPNAQPQYLHGSKALNLAYSSIYGSYRNFVGPPHFQVICRLLGYQGIAVVMEELLKVVKSLLQGTILQYVKTLMEVMPKICRLPRHEYGSPGILEFFHHQLKDIVEYAELKTVCFQNLREVGNAILFCLLIEQSLSLEEVCDLLHAAPFQNILPRVHVKEGERLDAKMKRLESKYAPLHLVPLIERLGTPQQIAIAREGDLLTKERLCCGLSMFEVILTRIRSFLDDPIWRGPLPSNGVMHVDECVEFHRLWSAMQFVYCIPVGTHEFTVEQCFGDGLHWAGCMIIVLLGQQRRFAVLDFCYHLLKVQKHDGKDEIIKNVPLKKMVERIRKFQILNDEIITILDKYLKSGDGEGTPVEHVRCFQPPIHQSLASS
B2: WAVE1 (subunit of the recombinant human WRC) (natural protein)
chain: MPLVKRNIDPRHLCHTALPRGIKNELECVTNISLANIIRQLSSLSKYAEDIFGELFNEAHSFSFRVNSLQERVDRLSVSVTQLDPKEEELSLQDITMRKAFRSSTIQDQQLFDRKTLPIPLQETYDVCEQPPPLNILTPYRDDGKEGLKFYTNPSYFFDLWKEKMLQDTEDKRKEKRKQKQKNLDRPHEPEKVPRAPHDRRREWQKLAQGPELAEDDANLLHKHIEVANGPASHFETRPQTYVDHMDGSYSLSALPFSQMSELLTRAEERVLVRPHEPPPPPPMHGAGDAKPIPTCISSATGLIENRPQSPATGRTPVFVSPTPPPPPPPLPSALSTSSLRASMTSTPPPPVPPPPPPPATALQAPAVPPPPAPLQIAPGVLHPAPPPIAPPLVQPSPPVARAAPVCETVPVHPLPQGEVQGLPPPPPPPPLPPPGIRPSSPVTVTALAHPPSGLHPTPSTAPGPHVPLMPPSPPSQVIPASEPKRHPSTLPVISDARSVLLEAIRKGIQLRKVEEQREQEAKHERIENDVATILSRRIAVEYSDSEDDSEFDEVDWLE

Key:
[1] = biological target: B2; assay: AUC
[2] = biological target: B1; assay: co-expression and purification of the complex

stoichiometry N [1] | binding result [2] | Binder
1 |  | B1
1 |  | Abi2 (subunit of the recombinant human WRC) (natural protein) MAELQMLLEEEIPGGRRALFDSYTNLERVADYCENNYIQSADKQRALEETKAYTTQSLASVAYLINTLANNVLQMLDIQASQLRRMESSINHISQTVDIHKEKVARREIGILTTNKNTSRTHKIIAPANLERPVRYIRKPIDYTILDDIGHGVKWLLRFKVSTQNMKMGGLPRTTPPTQKPPSPPMSGKGTLGRHSPYRTLEPVRPPVVPNDYVPSPTRNMAPSQQSPVRTASVNQRNRTYSSSGSSGGSHPSSRSSSRENSGSGSVGVPIAVPTPSPPSVFPAPAGSAGTPPLPATSASAPAPLVPATVPSSTAPNAAAGGAPNLADGFTSPTPPVVSSTPPTGHPVQFYSMNRPASRHTPPTIGGSLPYRRPPSITSQTSLQNQMNGGPFYSQNPVSDTPPPPPPVEEPVFDESPPPPPPPEDYEEEEAAVVEYSDPYAEEDPPWAPRSYLEKVVAIYDYTKDKEDELSFQEGAIIYVIKKNDDGWYEGVMNGVTGLFPGNYVESIMHYSE
1 |  | Nap1 (natural protein) MSRSVLQPSQQKLAEKLTILNDRGVGMLTRLYNIKKACGDPKAKPSYLIDKNLESAVKFIVRKFPAVETRNNNQQLAQLQKEKSEILKNLALYYFTFVDVMEFKDHVCELLNTIDVCQVFFDITVNFDLTKNYLDLIITYTTLMILLSRIEERKAIIGLYNYAHEMTHGASDREYPRLGQMIVDYENPLKKMMEEFVPHSKSLSDALISLQMVYPRRNLSADQWRNAQLLSLISAPSTMLNPAQSDTMPCEYLSLDAMEKWIIFGFILCHGILNTDATALNLWKLALQSSSCLSLFRDEVFHIHKAAEDLFVNIRGYNKRINDIRECKEAAVSHAGSMHRERRKFLRSALKELATVLSDQPGLLGPKALFVFMALSFARDEIIWLLRHADNMPKKSADDFIDKHIAELIFYMEELRAHVRKYGPVMQRYYVQYLSGFDAVVLNELVQNLSVCPEDESIIMSSFVNTMTSLSVKQVEDGEVFDFRGMRLDWFRLQAYTSVSKASLGLADHRELGKMMNTIIFHTKMVDSLVEMLVETSDLSIFCFYSRAFEKMFQQCLELPSQSRYSIAFPLLCTHFMSCTHELCPEERHHIGDRSLSLCNMFLDEMAKQARNLITDICTEQCTLSDQLLPKHCAKTISQAVNKKSKKQTGKKGEPEREKPGVESMRKNRLVVTNLDKLHTALSELCFSINYVPNMVVWEHTFTPREYLTSHLEIRFTKSIVGMTMYNQATQEIAKPSELLTSVRAYMTVLQSIENYVQIDITRVFNNVLLQQTQHLDSHGEPTITSLYTNWYLETLLRQVSNGHIAYFPAMKAFVNLPTENELTFNAEEYSDISEMRSLSELLGPYGMKFLSESLMWHISSQVAELKKLVVENVDVLTQMRTSFDKPDQMAALFKRLSSVDSVLKRMTIIGVILSFRSLAQEALRDVLSYHIPFLVSSIEDFKDHIPRETDMKVAMNVYELSSAAGLPCEIDPALVVALSSQKSENISPEEEYKIACLLMVFVAVSLPTLASNVMSQYSPAIEGHCNNIHCLAKAINQIAAALFTIHKGSIEDRLKEFLALASSSLLKIGQETDKTTTRNRESVYLLLDMIVQESPFLTMDLLESCFPYVLLRNAYHAVYKQSVTSSA
1 |  | HSPC300 (natural protein) MAGQEDPVQREIHQDWANREYIEIITSSIKKIADFLNSFDMSCRSRLATLNEKLTALERRIEYIEARVTKGETLT
 | binds | B2
